Reference: the DeepSol protein solubility set

Assay: soluble on expression in E. coli; label from the status in PepcDB or PDB records

For “GMSRTNINFNNKRTELANKIWDIFIANGYENTTLAFIINKLGISKGALYHYFSSKEECADAAIENRVAFFSNEVLKESEEGLNSIERLKKILLAGIKITSVNEQVKEINSPSNKIFHQKLMVAIIKYFAPIYADIISQGNEEGVFKVKYPLETAEIILTLSHFYLDEDLFKWKKEDMSLKLTAFKETLIKILDADEDTFDFIK”, which “soluble on expression in E. coli” value is on record?
Its value is “soluble”.

Which “soluble on expression in E. coli” value does the source give for “MNKHSGIDFKQLNFLTKLNENHSGELWKGRWQGNDIVVKVLKVRDWSTRKSRDFNEECPRLRIFSHPNVLPVLGACQSPPAPHPTLITHWMPYGSLYNVLHEGTNFVVDQSQAVKFALDMARGMAFLHTLEPLIPRHALNSRSVMIDEDMTARISMADVKFSFQSPGRMYAPAWVAPEALQKKPEDTNRRSADMWSFAVLLWELVTREVPFADLSNMEIGMKVALEGLRPTIPPGISPHVSKLMKICMNEDPAKRPKFDMIVPILEKMQDK” here?
Its value is “soluble”.

For “MAHHHHHHMRNIVQKYLQRNSTKLFNRTSVFNLYKKCNFSGYKIYSDGLVHSEFSTELKTVNEVIKMPIYRILDTNGHLLDGHEAPFKDEEVLKIYKDMVEFSIWDEIFYGIQRQGRISFYIVNEGEEGLQFGMGKALSVDDHLYCQYRETGVLLSRGFTYTDILNQLFGTKYDEGKGRQMCICYTKKDLNIHTITTPLGSQLSHAAGCGYALKLKNQKAVAVTYCGDGSSSEGDFYAALNFASVRQSQTMFVCKNNLYAISTSIKDQYRGDGIAPRALALGIESIRVDGNDLFASYLATKKLRDICIQESKPVFIEFMSYRYGHHSTSDDSSLYRPKEENEAWRQEGVHPISRIFLYLKNKNLYSEKEDQEHRKSVKENVLKELKKYESVKRYNIVGGLFEDVYHEEDWNIKEQRENFEQFFKENKHNYDTSKFER”, which “soluble on expression in E. coli” value is on record?
The value was “soluble”.

Which “soluble on expression in E. coli” value does the source give for “MFIPSIYLHQQLHYCKTAILNWSRKMALSRQKFTFERLRRFTLPEGKKQTFLWDADVTTLACRATSGAKAFVFQSVYAGKTLRMTIGNINDWKIDDARAEARRLQTLIDTGIDPRIAKAVKIAEAESLQAESRKTKVTFSVAWEDYLQELRTGISAKTKRPYSTRYIADHINLSSRGGESKKRGQGPTSAGPLASLLNLPLSELTPDYIAAWLSTERQNRPTVTAHAYRLLRAFIKWSNYQKKYQGIIPGDLAQDYNVRKMVPVSASKADDCLQKEQLKSWFSAVRSLNNPIASAYLQVLLLTGARREEIASLRWSDVDFKWSSMRIKDKIEGERIIPLTPYVSELLNVLAQSPNSDVNKEGWVFRSNSKSGKIIEPRSAHNRALVLAELPHISLHGLRRSFGTLAEWVEVPTGIVAQIMGHKPSALAEKHYRRRPLDLLRKWHEKIETWILNEAGITIKNNVDMR” here?
The value was “soluble”.

Which “soluble on expression in E. coli” value does the source give for “MLTLENQIKEEREQDNSESPNGRTSPLVSQNNEQGSTLRDLLTTTAGKLRVGSTDAGIAFAPVYAMGAPSSKSGRTMPNILDDIIASVVENKIPPSKTSKINVKPELKEEPEESIISAVDENNKLYSDIPHSWICEKHILWLRIIRIAVIGSFSKNVGNKDSLQWFLVCIRKLEHHHHHH” here?
The value was “not soluble”.

With “MRIGHGFDVHKFGENGSGPLIIGGVRIPYEKGLLAHSDGDVALHAATDALLGAAALGDIGKLFPDTDPAFKGADSRGLLREAYRRILAKGYKLGNLDITIIAQAPKMAPHIPQMRVNLAEDLQCHMDDINVKATTTEQLGFTGRGEGIACEAVVLLVNVEQG” as the sequence, how does the “soluble on expression in E. coli” value read?
Its value is “not soluble”.

Which “soluble on expression in E. coli” value does the source give for “MMSGGYKSSGVGNDRSQRSVFVGNISYDVSEDTIRSIFSKAGNVLSIKMVHDRETGKPKGYGFIEFPDIQTAEVAIRNLNGYELSGRILRVDSAAGGMNMEEFGSSSNAPAPVEENPYGPECDAGKAPERISQTVASLAPEKMFELMKQLQESLKNNPSELHKFLVEHPQIAYAVLQAAVVMRIVDPQTALGLLHRNKAATLTPFHNTPQGAPPMVQQQQMPMPPKPTFAHPGPSMGPPMGPPMGPPMGHPQAPQYGQNYGQPVAPQQYKPPPQQQPPVQMRPPVQQPQQNHQEEQQNAELLMQVMQLSEHDLQMLPAGDREKIIELRQQLKRNVK” here?
Its value is “not soluble”.

Which “soluble on expression in E. coli” value does the source give for “KASEEGIGGRKTCEYYPCHFEGQNCTFCFCPFYPCENEKTGGKWIQSSRGGRVWSCVDCHLVHKKEIAQKILDCLMHEGDTDELVKVAWKEVMEPIL” here?
The value was “not soluble”.

For “AIAGELTDALLGKGALKTRFGSLLGQGDWGGVRVSQVEVRWVIFCLLHWLHVNLPVTEYLALDVLFPLAIVQKHSIL”, which “soluble on expression in E. coli” value is on record?
The value was “soluble”.

For “MRIQVNAKGAARLLSRHLWVFRRDVVSGPETPGLYPVYWGRRFLALALYNPHTDLAVRAYRFAPAEDPVAALLENLAQALARREAVLRQDPEGGYRLVHAEGDLLPGLVVDYYAGHAVVQATAHAWEGLLPQVAEALRPHVQSVLAKNDARTRELEGLPLYVRPLLGEVPERVQVQEGRVRYLVDLRAGQKTGAYLDQRENRLYMERFRGERALDVFSYAGGFALHLALGFREVVAVDSSAEALRRAEENARLNGLGNVRVLEANAFDLLRRLEKEGERFDLVVLDPPAFAKGKKDVERAYRAYKEVNLRAIKLLKEGGILATASCSHHMTEPLFYAMVAEAAQDAHRLLRVVEKRGQPFDHPVLLNHPETHYLKFAVFQVL”, which “soluble on expression in E. coli” value is on record?
Its value is “soluble”.

With “MAKKKKEILFCDYYEDWVETYKVGAIEDVTLNKYYVAARQLRDICPKLLMSDFSRKDYQLIMNEYGKTHEKQTAKDFHHHIKAAILDAYHDGLLKSDPTYRAVIKGKELEHHHHHH” as the sequence, how does the “soluble on expression in E. coli” value read?
Its value is “not soluble”.

Which “soluble on expression in E. coli” value does the source give for “MGSDKIHHHHHHMKLDPKLAQDIVNKMMTQIPYNVNMMDDQGYIIASGDPQRLNTLHVGAVAAINQQTTLPMHDSYGDHGQPGVNMPIVFNDQIIGVIGITGDPEKVTPLASLLRVATELLLDQNQHNLQEKQYETTLNRFLYHWSQVTQQIDTNTNLLLEAQQLGIDILKPRAAIVLPKQTLPIGLLDATDFQFDLDTTTLIVLTALPATIARFTTYCQTGQHRLGIGLFDRNVGNSVRQARQTLRISQIFQRPDFIHYSQIAFIQALLDGHLHVTDLQQRFQKLASTANGRELIKTLGMFVRLNTNVLQTAAALHIHRNTLSYRLDRLQQIFQLDPHQTLDLFTLYVGYLYFKADK” here?
Its value is “not soluble”.

With “MGLTAMGLTTMGLTTVGLATMGATTKISQQHFFKFSRSDPIVLLQYSYSTTTVPRPYPTNNSKPISLQKTKTQFFLNYSNPTVLLQYLYSTTTVPRPYPTTNPKLISLQQPKTPFLSPRIRLVLREHERCRGALSDVWVAGAARGAVRCAKLYNKTRHVIRKISANKRKLFPLFYCYTYIHTYKNQVSPEKNANQKGKRMFPRFMVGVALIFELNNYDIETSCSHSSSSFSARLSSADYEVYWARALQILHVGGVEIDEFGGG” as the sequence, how does the “soluble on expression in E. coli” value read?
Its value is “not soluble”.

Which “soluble on expression in E. coli” value does the source give for “MKTVMLMLTSLLMAGCSVLGKREAAEPPYELLKHDGAFEVRRYGPMVIAETILDEKSYSAASGKGFNRLAGYIFGKNRSKTSISMTAPVLQERSSEKISMTAPVLQQPQKGGWSMAFVLPEGFTLQSAPEPLDPEVKLRELPPSTIAVVTFSGLHSAANLEKYSRQLQAWLKKQGYRALSEPKLASYDPPWTIPFLRRNEVQIRIEPDHGESGKELEHHHHHH” here?
Its value is “soluble”.

With “MTNESEVGVKKAAELLRQGATMLEEACPICKMPLFKLKNGDVVCPVHGKVYIVKSDDEEKIVKRNLQLDEIESILIDGLYLSAKKMKEDPLDSERIIQIIRYLDALERLRKIKINSSE” as the sequence, how does the “soluble on expression in E. coli” value read?
The value was “not soluble”.

Which “soluble on expression in E. coli” value does the source give for “MAFAGLTDLRLFDNVSHYINELAGEFSPDTAHLHDHNCKCSIVDRLWCDYFGMGTCISREARARRKERKRNIKRLREARNASASPRDPFSNGHRYGHRSRSEGGNGDVRDDIKELIIETLEVIRTLVNNEQEPPQSLLKLNFIADEEKGWTMVVRALIYTIPENDPLGPAVISLFLDECPLPSRESVQTLLLSLGLSSEFVDSKHLPPSWHKNMCIVLGSLAEKMAGSAAVTMFNDKIKGYLMKIICYGLTYFPPNYGKTLKEKNTHCVRMFALLALEKFAQTRENQISICKMFTEMTTHPLIKMEEYLKNEEVSRYWFAKQEGFCAQWALDNIFILESRPYSYETCETSKINAMLNHEDVSEYLKIGPDGLEARCDVSSFESVRCTFEVMDGVWYYEATVLTSGVMQIGLATKRSRFLNHEGYGIGDDASSVAYDGCRQLVWYNAKSHKHEHENWQPGDVIGVLLNIPEGEVVFYLNGTPLKEPETEFLSNRQPSEGVFAAASFMSFQQCRFNFGASRFKYNPGKKFRCFNDFGKLSTEQRTIVPRRLRLELLEKEHIPEDYCTICFAAPGSTTLLPCNHDGFCSDCCNMMDHCPLCRKPIEERIQKTKNNRSFDNVKSPSNSSISAFVRVNSQRKSTRATSAVATHPTDTVIHTGITTANNRDIARRHTQV” here?
Its value is “not soluble”.

Which “soluble on expression in E. coli” value does the source give for “MSDASKRAAFDQYGHAGVDPSMGGGGAGFGGANFSDIFGDVFSDFFGGGGRGGGRGGAQRGSDLRYTLELNLEEAVRGTTVSIRVPTLVNCQPCDGSGAKKGSTPSTCPTCGGIGQVRMQQGFFSVQQTCPRCHGQGKIITDPCTSCHGEGRVEEYKTLSVKVPAGVDTGDRIRLSGEGEAGTHGGPTGDLYVVISVREHEIFQRDGKHLYCEVPISYTDAALGGELEVPTLDGRVKLKIPEGTQTGKQFRLRGKGVAPVRGGGAGDLLCRVAVETPVNLSRRQRELLEELRDSLEGDSSHSPKASGWFDGVKRFFGDLLEHHHHHH” here?
Its value is “not soluble”.

Which “soluble on expression in E. coli” value does the source give for “MSEKMVAIMKTKPGYGAELVEVDVPKPGPGEVLIKVLATSICGTDLHIYEWNEWAQSRIKPPQIMGHEVAGEVVEIGPGVEGIEVGDYVSVETHIVCGKCYACRRGQYHVCQNTKIFGVDTDGVFAEYAVVPAQNIWKNPKSIPPEYATLQEPLGNAVDTVLAGPISGKSVLITGAGPLGLLGIAVAKASGAYPVIVSEPSDFRRELAKKVGADYVINPFEEDVVKEVMDITDGNGVDVFLEFSGAPKALEQGLQAVTPAGRVSLLGLYPGKVTIDFNNLIIFKALTIYGITGRHLWETWYTVSRLLQSGKLNLDPIITHKYKGFDKYEEAFELMRAGKTGKVVFMLK” here?
Its value is “soluble”.

Which “soluble on expression in E. coli” value does the source give for “SSNKEGSGGFRKRKHDNFPHNQRREGKDVNSSSPVMLAFKSFQQELDARHDKYERLVKLSRDITVESKRTIFLLHRITSAPDMEDILTESEIKLDGVRQKIFQVAQELSGEDMHQFHRAITTGLQEYVEAVSFQHFIKTRSLISMDEINKQLIFTTEDNGKENKTPSSDAQDKQFGTWRLRVTPVDYLLGVADLTGELMRMCINSVGNGDIDTPFEVSQFLRQVYDGFSFIGNTGPYEVSKKLYTLKQSLAKVENACYALKVRGSEIPKHMLADVFSVKTEMIDQEEGIS” here?
Its value is “soluble”.

With “MENFAYYTPTRLIFGKGLAIITPRWMRHILNDHTLERFVKFSVDIYGLLRLRKRTFMKYLKHHCRIYEEYNRGRIFGQGVCLFIIYYKLEHHHHHH” as the sequence, how does the “soluble on expression in E. coli” value read?
Its value is “not soluble”.

Which “soluble on expression in E. coli” value does the source give for “MSLRDQFQLAIRVADLLQHITQMKRGQGYGFKEEYEALPEGQTASWDTAKEDENRNKNRYGNIISYDHSRVRLLVLDGDPHSDYINANYIDGYHRPRHYIATQGPMQETVKDFWRMIWQENSASIVMVTNLVEVGRVKCVRYWPDDTEVYGDIKVTLIETEPLAEYVIRTFTVQKKGYHEIRELRLFHFTSWPDHGVPCYATGLLGFVRQVKFLNPPEAGPIVVHCSAGAGRTGCFIAIDTMLDMAENERVVDIFNCVRELRAQRVNLVQTEEQYVFVHDAILEACLCGNTAIPVCEFRSLYYNISRLDPQTNSSQIKDEFQTLNIVTPRVRPEDCSIGLLPRNHDKNRSMDVLPLDRCLPFLISVDGESSNYINAALMDSHKQPAAFVVTQHPLPNTVADFWRLVFDYNCSSVVMLNEMDTAQFCMQYWPEKTSGCYGPIQVEFVSADIDEDIIHRIFRICNMARPQDGYRIVQHLQYIGWPAYRDTPPSKRSLLKVVRRLEKWQEQYDGREGRTVVHCLNGGGRSGTFCAICSVCEMIQQQNIIDVFHIVKTLRNNKSNMVETLEQYKFVYEVALEYLSSFEGHHHHHH” here?
The value was “soluble”.
